From patent publication US20200095333A1 (published 2020)

Legend:
[1] = target: T1, sCD16A (soluble CD16A, FcgammaRIIIA) (human, UniProt P08637 17-208); test: sandwich ELISA, CD32B coat, HRP-CD16 probe
T1 construct: extracellular domain; given only as soluble; used immobilised (SPR), coated, or biotin/HRP-labelled as probe (ELISA); also called CD16 antigen; sCD16A-Biotin

[2] = target: T2, sCD32B (soluble CD32B, FcgammaRIIB) (human, UniProt P31994 43-217); test: sandwich ELISA, CD32B coat, HRP-CD16 probe
T2 construct: extracellular domain; also called soluble CD32B ectodomain
T2 sequence: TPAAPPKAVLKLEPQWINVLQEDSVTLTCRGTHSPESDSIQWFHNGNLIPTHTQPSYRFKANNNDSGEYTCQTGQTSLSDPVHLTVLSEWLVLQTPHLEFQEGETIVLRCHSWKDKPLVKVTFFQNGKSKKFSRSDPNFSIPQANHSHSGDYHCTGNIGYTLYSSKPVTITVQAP

mCD32B (murine CD32B) = target: T3, mCD32B (murine CD32B) (murine, UniProt P08101 30-210); test: mCD32-hCD16A binding ELISA
T3 sequence: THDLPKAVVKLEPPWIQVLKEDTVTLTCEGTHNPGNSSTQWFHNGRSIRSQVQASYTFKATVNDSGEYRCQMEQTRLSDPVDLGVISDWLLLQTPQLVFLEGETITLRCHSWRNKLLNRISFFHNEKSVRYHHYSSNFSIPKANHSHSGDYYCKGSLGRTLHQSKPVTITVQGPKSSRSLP

[3] = target: T1, sCD16A (soluble CD16A, FcgammaRIIIA); test: mCD32-hCD16A binding ELISA
[4] = target: T1, sCD16A (soluble CD16A, FcgammaRIIIA); test: sandwich ELISA, CD32B coat, CD16A probe
[5] = target: T2, sCD32B (soluble CD32B, FcgammaRIIB); test: sandwich ELISA, CD32B coat, CD16A probe
[6] = target: T1, sCD16A (soluble CD16A, FcgammaRIIIA); test: SPR (BIAcore), receptor immobilised, diabody 6.25-200 nM
[7] = target: T4, human serum albumin (HSA) (human, UniProt P02768 25-609); test: ELISA, HSA coat, biotinylated sCD32B detection
T4 construct: also called human albumin; HRP-human albumin

[8] = target: T1, sCD16A (soluble CD16A, FcgammaRIIIA); test: dual ELISA, CD16 coat, biotinylated sCD32B detection
[9] = target: T2, sCD32B (soluble CD32B, FcgammaRIIB); test: as above
soluble CD16A(158F) = target: T5, soluble CD16A(158F) (human, UniProt P08637 17-208); test: SPR, HSA immobilised, ABD-DART then 200 nM CD32B and 200 nM CD16A(F158)
T5 construct: extracellular domain; also called CD16A(F158); sCD16A
T5 sequence (P08637 17-208): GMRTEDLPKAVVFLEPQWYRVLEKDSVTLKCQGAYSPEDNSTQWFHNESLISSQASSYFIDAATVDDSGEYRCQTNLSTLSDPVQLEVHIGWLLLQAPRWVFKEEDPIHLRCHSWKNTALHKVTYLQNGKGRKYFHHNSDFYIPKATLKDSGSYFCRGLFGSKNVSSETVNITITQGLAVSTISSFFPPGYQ

[10] = target: T4, human serum albumin (HSA); test: HSA binding class (+ = 0.1-0.4)
[11] = target: T4, human serum albumin (HSA); test: deimmunized ABD ELISA (FIG. 57)
[12] = target: T4, human serum albumin (HSA); test: HSA binding class (+++ = 0.7-1.0)
[13] = target: T4, human serum albumin (HSA); test: albumin binding of ABD variants

T1 sequence (P08637 17-208): as above

B1: product of constructs 1 and 9 (pMGX0669+pMGX0719) (bispecific antibody)
chain 1: EIVLTQSPDFQSVTPKEKVTFTCRTSQSIGTNIHWYQQKPDQSPKLLIKEVSESISGVPSRFSGSGSGTDFTLTINSLEAEDAATYYCQQSNTWPFTFGGGTKVEIKGGGSGGGGQVTLRESGPALVKPTQTLTLTCTFSGFSLSTSGMGVGWIRQPPGKALEWLAHIWWDDDKRYNPALKSRLTISKDTSKNQVVLTMTNMDPVDTATYYCAQINPAWFAYWGQGTLVTVSSLGGC
chain 2: not shown
notes: hinge-Fc at the N-terminus of the heavier chain; also called constructs 9+1; copies: 2 + 2
binding result [1]: binds
binding result [2]: binds

B2: product of constructs 1 and 10 (pMGX0669+pMGX0718) (bispecific antibody)
chain 1: EIVLTQSPDFQSVTPKEKVTFTCRTSQSIGTNIHWYQQKPDQSPKLLIKEVSESISGVPSRFSGSGSGTDFTLTINSLEAEDAATYYCQQSNTWPFTFGGGTKVEIKGGGSGGGGQVTLRESGPALVKPTQTLTLTCTFSGFSLSTSGMGVGWIRQPPGKALEWLAHIWWDDDKRYNPALKSRLTISKDTSKNQVVLTMTNMDPVDTATYYCAQINPAWFAYWGQGTLVTVSSLGGC
chain 2: not shown
notes: Fc at the N-terminus of the heavier chain; also called constructs 10+1; copies: 2 + 2
binding result [1]: binds
binding result [2]: binds

B3: Ig-like tetravalent DART (2.4G2-3G8-hKappa / 3G8-2.4G2-hG1) (bispecific antibody)
chain 1: DVQMTQSPSNLAASPGESVSINCKASESISKYLAWYLQKPGKANKLLMYDGSTLQSGIPSRFSGSGSGTDFTLTIRSLEPEDFGLYYCQQHYEYPATFGSGTKLEIKGGGSGGGGQVTLKESGPGILQPSQTLSLTCSFSGFSLRTSGMGVGWIRQPSGKGLEWLAHIWWDDDKRYNPALKSRLTISKDTSSNQVFLKIASVDTADTATYYCAQINPAWFAYWGQGTLVTVSSLGGCGGGSRTVAAPSVFIFPPSDEQLKSGTASVVCLLNNFYPREAKVQWKVDNALQSGNSQESVTEQDSKDSTYSLSSTLTLSKADYEKHKVYACEVTHQGLSSPVTKSFNRGEC
chain 2: not shown
notes: also called Ig DART 1; Ig DART 2
binding result (mCD32B (murine CD32B)): binds
binding result [3]: binds

B4: product of constructs 11 and 12 (bispecific antibody)
chain 1: not shown
chain 2: DIVMTQSPDSLAVSLGERATINCKASQSVDFDGDSFMNWYQQKPGQPPKLLIYTTSNLESGVPDRFSGSGSGTDFTLTISSLQAEDVAVYYCQQSNEDPYTFGQGTKLEIKGGGSGGGGQVQLVQSGAEVKKPGASVKVSCKASGYTFTNYWIHWVRQAPGQCLEWIGVIDPSDTYPNYNKKFKGRVTMTVVVSTSTAYMELRSLRSDDTAVYYCARNGDSDYYSGMDYWGQGTTVTVSSFNRGEC
notes: C-terminal hinge-Fc; engineered cysteines G105C (2B6 VL) and G44C (2B6 VH); copies: 2 + 2
binding result [1]: binds
binding result [2]: binds

B5: product of constructs 15 and 16 (pMGX0752+pMGX0753) (bispecific antibody)
chain 1: EIVLTQSPDFQSVTPKEKVTFTCRTSQSIGTNIHWYQQKPDQSPKLLIKEVSESISGVPSRFSGSGSGTDFTLTINSLEAEDAATYYCQQSNTWPFTFGGGTKVEIKGGGSGGGGQVTLRESGPALVKPTQTLTLTCTFSGFSLSTSGMGVGWIRQPPGKALEWLAHIWWDDDKRYNPALKSRLTISKDTSKNQVVLTMTNMDPVDTATYYCAQINPAWFAYWGQGTLVTVSSFNRGEC
chain 2: DIVMTQSPDSLAVSLGERATINCKASQSVDFDGDSFMNWYQQKPGQPPKLLIYTTSNLESGVPDRFSGSGSGTDFTLTISSLQAEDVAVYYCQQSNEDPYTFGQGTKLEIKGGGSGGGGQVQLVQSGAEVKKPGASVKVSCKASGYTFTNYWIHWVRQAPGQGLEWIGVIDPSDTYPNYNKKFKGRVTMTVVVSTSTAYMELRSLRSDDTAVYYCARNGDSDYYSGMDYWGQGTTVTVSSVEPKSC
notes: Hu2B6VL-Hu3G8VH-FNRGEC and Hu3G8VL-Hu2B6VH-VEPKSC; also called construct 15/16 combination
binding result [4]: binds
binding result [5]: binds

B6: h3G8 CMD (covalent monospecific diabody, construct 3) (other)
chain: DIVMTQSPDSLAVSLGERATINCKASQSVDFDGDSFMNWYQQKPGQPPKLLIYTTSNLESGVPDRFSGSGSGTDFTLTISSLQAEDVAVYYCQQSNEDPYTFGQGTKLEIKGGGSGGGGQVTLRESGPALVKPTQTLTLTCTFSGFSLSTSGMGVGWIRQPPGKALEWLAHIWWDDDKRYNPALKSRLTISKDTSKNQVVLTMTNMDPVDTATYYCAQINPAWFAYWGQGTLVTVSSLGGC
modifications: covalent homodimer; interchain disulfide through the C-terminal LGGC cysteines
notes: covalent homodimer diabody; also called h3G8 diabody
Kd [6]: 18 nM

B7: hCD16-hCD32B ABD-DART (bispecific antibody)
chain 1: DIVMTQSPDSLAVSLGERATINCKASQSVDFDGDSFMNWYQQKPGQPPKLLIYTTSNLESGVPDRFSGSGSGTDFTLTISSLQAEDVAVYYCQQSNEDPYTFGQGTKLEIKGGGSGGGGQVQLVQSGAEVKKPGASVKVSCKASGYTFTNYWIHWVRQAPGQGLEWIGVIDPSDTYPNYNKKFKGRVTMTVVVSTSTAYMELRSLRSDDTAVYYCARNGDSDYYSGMDYWGQGTTVTVSSGGCGGGKVAALKEKVAALKEKVAALKEKVAALKEGGGNS
chain 2: EIVLTQSPDFQSVTPKEKVTFTCRTSQSIGTNIHWYQQKPDQSPKLLIKEVSESISGVPSRFSGSGSGTDFTLTINSLEAEDAATYYCQQSNTWPFTFGGGTKVEIKGGGSGGGGQVTLRESGPALVKPTQTLTLTCTFSGFSLSTSGMGVGWIRQPPGKALEWLAHIWWDDDKRYNPALKSRLTISKDTSKNQVVLTMTNMDPVDTATYYCAQINPAWFAYWGQGTLVTVSSGGCGGGEVAALEKEVAALEKEVAALEKEVAALEKGGGNSLAEAKVLANRELDKYGVSDYYKNLINNAKTVEGVKALIDEILAALP
notes: also called hCD16-hCD32B EK ABD-DART; DART ABD fusion
binding result [7]: binds
binding result [8]: binds
binding result [9]: binds
binding result (soluble CD16A(158F)): binds

B8: product of co-expression of constructs 7 and 8 (pMGX0677+pMGX0678), tetrameric IgG-like diabody (bispecific antibody)
chain 1: EIVLTQSPDFQSVTPKEKVTFTCRTSQSIGTNIHWYQQKPDQSPKLLIKEVSESISGVPSRFSGSGSGTDFTLTINSLEAEDAATYYCQQSNTWPFTFGGGTKVEIKGGGSGGGGQVTLRESGPALVKPTQTLTLTCTFSGFSLSTSGMGVGWIRQPPGKALEWLAHIWWDDDKRYNPALKSRLTISKDTSKNQVVLTMTNMDPVDTATYYCAQINPAWFAYWGQGTLVTVSSLGGCFNRGEC
chain 2: not shown
binding result [1]: binds
binding result [2]: binds

LAEAKVLANRELDKYGVSDYYKNLADNAKTAEGVKALIDEILAALP (other, also called 65A/66D/71A) [ABD I65A/N66D/V71A]
HSA binding [10]: 0.1 to 0.4

LAEAKVLANRELDKYGVSDYYKNAIDNAKTAEGVKALIDEILAALP (other, also called 64A/66D/71A) [ABD L64A/N66D/V71A]
HSA binding [10]: 0.1 to 0.4

LAEAKVLANRELDKYGVSDYYKNGIDNAKTAEGVKALIDEILAALP (other, also called 64G/66D/71A) [ABD L64G/N66D/V71A]
HSA binding [10]: 0.1 to 0.4

LAEAKVLANRELDKYGVSDYYKNLISNAKSVEGVKALIAEILAALP (other) [variant ABD N66S, T70S and D79A]
binding result [11]: binds

LAEAKVLANRELDKYGVSDYYKNLIENAKTVEGVKALIDEILAALP (other) [ABD N66E]
HSA binding [12]: 0.7 to 1

LAEAKVLANRELDKYGVSDYYKNLIDNAKTVEGVKALIDEILAALP (other) [ABD N66D]
HSA binding [12]: 0.7 to 1

LAEAKVLANRELDKYGVSDYYKNLIDNAKSAEGVKALIDEILAALP (other) [ABD N66D/T70S/V71A (ABD (DSA))]
binding result [13]: binds

LAEAKVLANRELDKYGVSDYYKNAANNAKTVEGVKALIAEILAALP (other) [variant ABD L64A, I65A and D79A]
binding result [11]: binds
